In PMC3226476:
Like-named read-outs stand apart in the source and are kept apart here.

Legend:
Assay in all cases: co-sedimentation
[1] = biological target: INF2-FH1FH2 (human, 469-941) (human) (UniProt Q27J81)
[2] = biological target: mDia1-FH1FH2C (mouse, amino acids 548-1255) (mouse) (UniProt O08808)
[3] = biological target: mDia2-FH1FH2C (mouse, 521-1171) (mouse) (UniProt Q9Z207)
[4] = biological target: Taxol-stabilized microtubules (polymerized porcine brain tubulin) (porcine (purified from brain)) (UniProt P02550)
[5] = biological target: Taxol-stabilized microtubules (polymerized porcine brain tubulin) (porcine (purified from brain)) (UniProt P02550); remark: listed apart in the source

Row | Substance | Kd [4] [µM] | stoichiometry N (tubulin dimer:formin dimer) [4] | further results
1 | LatB-stabilized actin monomers (rabbit skeletal muscle actin) (from UniProt P68135 1-377) (natural protein) |  |  | percent of the actin in the pellet [1]: 10%; percent of the actin in the pellet [2]: 10%; percent of the actin in the pellet [3]: 10%
2 | GST-INF2-Cterm (human CAAX variant, 941-1249) (from UniProt Q27J81 941-1249) (domain or fragment) | > 20 |  | 
3 | mDia1-FH1FH2C (mouse, amino acids 548-1255) (from UniProt O08808 548-1255) (domain or fragment) |  | 3.09 | 
4 | GST-mDia1-Cterm (1149-1255) (from UniProt O08808 1149-1255) (domain or fragment) | > 20 |  | 
5 | GST-mDia2-Cterm (1009-1171) (from UniProt Q9Z207 1009-1171) (domain or fragment) | 710 | 0.6 | Kd [5]: 0.71 µM
